The target of assay [1] is human chemokine receptor 5 (CCR5) (human) (UniProt P51681). Put plainly: cell-based or functional assay.
Assay [2] addresses murine CCR5 (murine) (UniProt P51682). The assay can be described thus: cell-based or functional assay.
UniProt P51682, sequence (P51682 whole entry): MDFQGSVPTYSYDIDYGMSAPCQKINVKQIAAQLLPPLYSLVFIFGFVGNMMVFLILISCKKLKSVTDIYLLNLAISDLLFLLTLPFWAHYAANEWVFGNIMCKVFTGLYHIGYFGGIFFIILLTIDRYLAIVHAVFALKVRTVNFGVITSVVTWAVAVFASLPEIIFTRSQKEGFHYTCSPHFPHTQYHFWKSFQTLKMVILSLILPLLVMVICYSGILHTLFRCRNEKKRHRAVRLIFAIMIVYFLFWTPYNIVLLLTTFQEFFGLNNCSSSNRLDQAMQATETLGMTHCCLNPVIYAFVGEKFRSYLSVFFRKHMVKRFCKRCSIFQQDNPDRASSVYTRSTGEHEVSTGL

For the substance “chemokine-toxin fusion protein RANTES-PE38”, in assay [1], the cytotoxicity on CCR5 positive CHO cells (48 h): concentration of complete destruction is 2 nM and the cytotoxicity on CHO cells expressing human CCR5 (40 h): concentration of complete killing was determined as 10 nM. Moreover, the cytotoxicity on CHO cells expressing murine CCR5 (40 h, light microscopy) in assay [2] came to 10 nM.

These data come from patent publication WO2002020615A2.
